The source of these data is US9295724B2, “Stable formulations for parenteral injection of peptide drugs” (Xeris Pharmaceuticals, Inc., priority 2011, dated 2016).

Data set [1] in a line: Effect of pH on insulin solubility in DMSO. It counts as physicochemical. The protocol:
These solutions were lyophilized to dryness ([…]) using a conservative cycle and reconstituted to various nominal concentrations in DMSO. Solubility was measured by visual inspection for clarity and turbidity via A630.

Data set [2] in a line: Freezing point depression of DMSO solutions by DSC. It counts as physicochemical. The note with it: cooled to −40° C. and heated to 40° C. at 8° C. per minute. The protocol:
Using PerkinElmer Instruments PYRIS Diamond Differential Scanning Calorimetry (“DSC”), samples were cooled to −40° C. and heated to 40° C. at 8° C. per minute for screening purposes.

Turning to insulin, the “solubility in DMSO” value in data set [1] (lyophilized at pH 2) was “at least 100 mg/mL”; in data set [1] (pH memory of 7, lowest concentration tested 10 mg/mL) it was “poor solubility”. Besides, in data set [1] (pH memory of 7, lower concentration e.g. 10 mg/mL, DMSO), the “time to slowly dissolve to a clear solution” value is “about 24 hours”.

Consider `C[S+](C)[O-]` [neat DMSO, dimethylsulfoxide], for which, in data set [2], the “temperature of crystallization (Tc) by DSC” value is 18 °C.
